Data published in patent publication US7507716B2, “Method for treating pain with prolactin antagonists” (Board of Regents, The University of Texas System, priority 2005, dated 2009).

Columns and labels:
[1] = system: acutely dissociated TG neurons; experiment: Calcium imaging, PRL effect on capsaicin-evoked Ca2+ influx; format: cell-based, rat
Source text: The binding of PRL to the PRL-R activates a variety of intracellular signaling pathways in non-neuronal cells (Bole-Feysot et al. 1998), some of which are known to be involved in the sensitization of TRPV1 in nociceptors (Cesare and McNaughton, 1996). To evaluate whether PRL sensitizes capsaicin activation of TRPV1, changes in calcium (Ca^2+) influx were quantified in acutely dissociated TG neurons. FIG. 4A depicts the results of Ca^2+ imaging experiments performed in acutely dissociated TG neurons. Data are presented as mean % of vehicle±SEM (n=30/group, ***=p<0.001; two-way ANOVA). FIG. 4B depicts representative traces of Ca^2+ imaging experiments performed in neurons from proestrous rats. Neurons were treated with 40 nM PRL or vehicle for 10 min followed by a 40 sec capsaicin (30 nM) application. […] Data are presented as mean F340/F380±SEM (n=8/group; error bars are SEM). […] PRL appears to increase the magnitude of capsaicin-evoked Ca^2+ influx in TG neurons by about 71% compared to that observed in TG neurons not exposed to PRL, whereas PRL had no effect on capsaicin-evoked calcium influx in neurons from OVX control rats (FIG. 4A). […]
Calcium Imaging: TG cells cultured on coverslips were loaded with the cell-permeable calcium sensitive dye FURA 2-AM (1 ug/ml) (Molecular Probes, Eugene, Oreg.) for 30 min at 37° C. in Standard External Solution (SES) of the following composition in mM: 140 NaCl, 5 KCl, 2 CaCl2, 1 MgCl2, 10 glucose and 10 HEPES, pH 7.4. […] Fluorescence images were collected in 5 sec intervals throughout the experiment, analyzed, and the F340/F380 ratio calculated by the Methafluor Software (MethaMorph, Web Universal Imaging Corporation, Downingtown, Pa.). […] The magnitude of calcium influx was determined by subtracting the averaged baseline 30 sec prior to the capsaicin stimulus from the peak achieved by the capsaicin stimulation for each cell (ratiometric method, ΔF340/F380).

TG neurons = experiment: Patch clamp, capsaicin-induced currents (Icap); format: cell-based, rat
Description: Since application of PRL rapidly increases capsaicin-induced calcium accumulation and neuropeptide release, the role of PRL in modulating capsaicin-induced currents (Icap) was examined. TRPV1 desensitization of cultured TG neurons was induced through the repeated application of 100 nM capsaicin to the cultures (Vellani et al., 2001; Bonnington and McNaughton, 2003). The sub-maximal concentration of capsaicin used was effective in inducing desensitization and permitted the investigation PRL-evoked re-sensitization or further sensitization of TRPV1. […] Data are presented as mean±SEM of PRL-treated ΔIcap (3rd Icap-2^ndIcap) normalized to vehicle treated ΔIcap, (n=8-12/group, *=p<0.05 and **=p<0.01; two-way ANOVA). […] Acutely dissociated TG neurons from female rats were locally pretreated with vehicle or PRL (40 nM) for 60 sec, washed for 60 sec and subjected to a single capsaicin pulse (40 sec, 0.1 nM-5 μM). Data are shown as mean±SEM (n=12-20/group, *=p<0.05 and ***=p<0.001 vehicle vs. PRL; two-way ANOVA). FIGS. 5C and 5D depict representative traces of Icap recordings from intact (FIG. 5C) and OVX (FIG. 5D) female rat TG neurons. Concentration of applied CAP and PRL are indicated. The duration CAP and PRL treatment was 30 sec and 60 sec, respectively. The magnitude of the second capsaicin-evoked inward currents (Icap) peak was subtracted from the third Icap peak to calculate the difference (ΔIcap). Data were normalized to the vehicle treated ΔIcap.
Patch Clamp Electrophysiology: All recordings were performed in whole-cell voltage-clamp (Vh=−60 mV) configuration. Recordings were acquired at 22-24° C. from the somata of neurons (15-45 pF) using an Axopatch200B amplifier and pCLAMP9.0 software (Axon Instruments, Union City, Calif.). Data were filtered at 0.5 kHz and sampled at 2 kHz. Borosilicate pipettes (Sutter, Novato, Calif.) were polished to resistances of 3-5 MΩ in pipette solution. Access resistance was compensated (40-80%) to 7-10 MΩ values when appropriate. Cell diameters were calculated using d=√[100*Cm/π], where d (μm) is cell diameter and Cm (pF) is membrane capacitance.
Standard external solution (SES) had the composition as described above. […] Drugs were applied using a fast, computer controlled pressure-driven 8-channel system (ValveLink8; AutoMate Scientific, San Francisco, Calif.).
FIG. 11B summarizes the effect of adding rhPRL on Icap of cultured TG neurons from male, female and OVX female rats. Number of recorded neurons and neurons in which effects were observed are indicated above the bars. The recordings were performed in whole-cell voltage clamp c(Vh=−60 mV) configuration. Solutions are SES and SIS.

B1: PRL: Ovine PRL [oPRL-21, BIO] provided by NHPP; prolactin polypeptide hormone (protein, UniProt P01240 31-229, looked up)
Prolactin: TPVCPNGPGNCQVSLRDLFDRAVMVSHYIHNLSSEMFNEFDKRYAQGKGFITMALNSCHTSSLPTPEDKEQAQQTHHEVLMSLILGLLRSWNDPLYHLVTEVRGMKGVPDAILSRAIEIEEENKRLLEGMEMIFGQVIPGAKETEPYPVWSGLPSLQTKDEDARHSAFYNLLHCLRRDSSKIDTYLKLLNCRIIYNNNC
[1]; PRL 40 nM 10 min, capsaicin 30 nM 40 sec, neurons from intact female rats
  increase in magnitude of capsaicin-evoked Ca2+ influx: about 71%
[1]; PRL 40 nM, neurons from OVX control rats
  effect on capsaicin-evoked calcium influx: had no effect
[1]; PRL 40 nM, neurons from proestrous rats
  Ca2+ influx evoked by PRL on its own: did not evoke Ca^2+ influx on its own
TG neurons; PRL 40 nM 60 sec, single capsaicin pulse 0.1 nM-5 μM, female rat TG neurons
  effect of PRL pretreatment on capsaicin potency (Icap): increased capsaicin potency
TG neurons; TRPV1-desensitized TG neurons from naive female rats, 100 nM capsaicin
  concentration of maximal potentiation of Icap: 40 nM
TG neurons; TRPV1-desensitized TG neurons from naive female rats, 100 nM capsaicin, read-out: EC50 of Icap sensitization
  EC50: 0.27 nM
TG neurons; rat OVX TG neurons
  effect on Icap: had no observed effect
